Stoichiometry N data for two substances are collected here from paper PMC9083094.

Test [1] concerns the target Aβ_(C18C33), mutant Aβ42 peptide containing an intramolecular disulfide bond. Put plainly: native MS.
For test [2] the target is unchanged. Put plainly: native MS. The source holds these as a separate data set.
Test [3] has the same target. The test is described as follows: native MS. The source holds these as a separate data set.
The target is the same in test [4]. The test is described as follows: SDS-PAGE.
For test [5] the target is unchanged. Put plainly: SDS-PAGE. This is another data set of the same source.
For test [6] the target is unchanged. Put plainly: SEC-MS.
Test [7] deals with Aβ_(C24C29), mutant Aβ42 peptide with an intramolecular disulfide bond. The test is described as follows: SDS-PAGE.

Where “and” joins values, the source holds several entries; their conditions need not be identical. Equal values may be shown once.

What is called stoichiometry N is a count of units in the complex or per binding partner.

Regarding “Aβ_(C18C33), mutant Aβ42 peptide containing an intramolecular disulfide bond”, the stoichiometry N in test [1] is 2 and 4; in test [2], 4; in test [3] it was 4; in test [4], 2; in test [5], 2; in test [6], 2.

Take “Aβ_(C24C29), mutant Aβ42 peptide with an intramolecular disulfide bond”: the stoichiometry N in test [7] was 3 and 4.
